Results: paper PMC6796926, “Pioneering function of Isl1 in the epigenetic control of cardiomyocyte cell fate”

T1: Isl1 homeodomain (Isl1-HD) (UniProt P61372 181-240)
T1 sequence: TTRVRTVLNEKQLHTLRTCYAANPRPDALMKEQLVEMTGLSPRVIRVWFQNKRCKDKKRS

B1: nonspecific competitor (NS) (dsDNA)
DNA 1: CAAGCAAAACAAACCA
DNA 2: TGGTTTGTTTTGCTTG
B2: free Ttn DNA (dsDNA)
DNA 1: CGGTGTCTGCTATCACTCAGTTTCATCCCTTTCTTCCCAAATGGCCAGTTTCATGTTGTGTATCTTGACAGTGACTCCCAACCAGAGACTCCTGTTAAGGGAACTTGTCAGTCATAATAGACAATAAGTGAACTTCTTGTTCGGGGTGCTCAATAATTTGCT
DNA 2: AGCAAATTATTGAGCACCCCGAACAAGAAGTTCACTTATTGTCTATTATGACTGACAAGTTCCCTTAACAGGAGTCTCTGGTTGGGAGTCACTGTCAAGATACACAACATGAAACTGGCCATTTGGGAAGAAAGGGATGAAACTGAGTGATAGCAGACACCG
B3: specific competitor (Insulin enhancer) (dsDNA)
DNA 1: CCCTTGTTAAGACTCTAATTACCCTAG
DNA 2: CTAGGGTAATTAGAGTCTTAACAAGGG

Legend:
[1] = biological target: T1, Isl1 homeodomain (Isl1-HD); assay: competition; 80x excess vs free and nucleosomal Ttn DNA, 0.5 uM Isl1; 40 mM KCl, 15 mM HEPES pH 8.0, 1 mM EDTA, 0.5 mM DTT, 2 mM MgCl2, 5% glycerol, 10 ng/ul poly dI/dC, 0.1 mg/ml BSA, 30 min, RT; 4% PAGE in 0.5x TBE; settings: protein: recombinant; tags: 6xHis; blunt
[2] = biological target: T1, Isl1 homeodomain (Isl1-HD); assay: EMSA; 0-1 uM Isl1; 40 mM KCl, 15 mM HEPES pH 8.0, 1 mM EDTA, 0.5 mM DTT, 2 mM MgCl2, 5% glycerol, 10 ng/ul poly dI/dC, 0.1 mg/ml BSA, 30 min, RT; 4% PAGE in 0.5x TBE; settings: protein: recombinant; tags: 6xHis; label: biotin (PCR primers); blunt

Row | Binder | binding result [1] | binding result [2]
1 | B1 | no binding | –
2 | B2 | – | binds
3 | B3 | binds | –
